From patent publication US20250346679A1 come the findings set out here.

This experiment addresses mouse CD137, cell-surface (mouse) (UniProt P20334). The experiment in a line: cell-based or functional assay.

mouse CD137, cell-surface (mouse), sequence (P20334 24-256): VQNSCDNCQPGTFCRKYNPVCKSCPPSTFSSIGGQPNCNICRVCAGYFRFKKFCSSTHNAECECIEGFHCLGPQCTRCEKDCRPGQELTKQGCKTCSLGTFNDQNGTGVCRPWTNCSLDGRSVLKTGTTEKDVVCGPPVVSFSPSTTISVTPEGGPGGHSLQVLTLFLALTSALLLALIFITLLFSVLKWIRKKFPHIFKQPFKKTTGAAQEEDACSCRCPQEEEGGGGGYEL

Substance G1-AA/Lob12.3 (antibody) displayed a +XL EC50 (nM), mouse CD137 DO11.10 T cell activation assay of 2.26 nM; a +XL Emax (IL-2 pg/ml), mouse CD137 DO11.10 T cell activation assay of 21300 pg/mL; an EC50 (nM), mIFN-γ release, OT-1 CD8+ T cell activation assay, with anti-hCH2 of 0.36 nM; an Emax (pg/ml), mIFN-γ release, OT-1 CD8+ T cell activation assay, with anti-hCH2 of 17800 pg/mL.
